Data: patent US7205273B2, “Fusogenic liposomes” (The University of British Columbia, priority 1996, dated 2007)

Legend:
[1] = 31P-NMR phase behaviour of equimolar DOPE:cholesterol mixtures with bilayer stabilizing component; assay type: physicochemical; settings: DOPE:cholesterol:BSC 1:1:0.25, 0 to 60° C.
Method: Lipid components were mixed in 1–2 ml of benzene:methanol (95:5, v/v) and then lyophilized for a minimum of 5 hours at a pressure of <60 millitorr using a Virtis lyophilizer equipped with a liquid N2 trap. Multilamellar vesicles (MLVs) were prepared by hydrating the dry lipid mixtures in 150 mM NaCl, buffered with 10 mM Hepes-NaOH, pH 7.4 (Hepes-buffered saline, HBS). Mixtures were vortexed to assist hydration. To produce large unilamellar vesicles (LUVs), MLVs were first frozen in liquid nitrogen and then thawed at 30° C. five times. LUVs were produced by extrusion of the frozen and thawed MLVs ten times through 2 stacked polycarbonate filters of 100 nm pore size at 30° C. and pressures of 200–500 psi (Hope, et al., Biochim. Biophys. Acta, 812:55–65 (1985)).
^31P-NMR spectra were obtained using a temperature controlled Bruker MSL200 spectrometer operating at 81 MHz. Free induction decays were accumulated for 2000 transients using a 4 μs, 90° pulse, 1 sec. interpulse delay, 20 KHz sweep width and Waltz decoupling. A 50 Hz line broadening was applied to the data prior to Fourier transformation. Samples were allowed to equilibrate at the indicated temperature for 30 minutes prior to data accumulation. Lipid concentrations of 30–70 mM were used.

[2] = Lipid mixing (FRET) assay, NaCl-induced fusion of DOPE:DODAC liposomes; settings: DOPE:DODAC:PEG-lipid 83:15:2, 300 mM NaCl, POPC sink, 37° C.
Method: FIG. 16 illustrates the inhibition of fusion of DOPE:DODAC liposomes by PEG-PE. Liposomes were prepared from either DOPE:DODAC (85:15) or DOPE:DODAC:DMPE-PEG2000 (83:15:2). Fusion was assayed as described under FIG. 1 using 300 mM NaCl.
FIG. 17 illustrates the recovery fusogenic activity after PEG removal. Liposomes were prepared from either DOPE:DODAC:ceramide(C8:0)-PEG2000, 83:15:2 or […], 38:45:15:2. Fusion was assayed as described under FIG. 2 except that at the indicated times a 30 fold excess (over donors) of liposomes composed of POPC or POPC:cholesterol (55:45) was added.
FIG. 18 illustrates the effect of the lipid anchor on the rate of PEG-lipid removal. […] At zero time a 13-fold excess (over labelled vesicles) of POPC liposomes was added and the fluorescence intensity was measured at the indicated times. At the end of the assay Triton X-100 (0.5% final) was added to eliminate energy transfer and the % fusion was calculated from the change in efficiency of energy transfer. Maximum fusion was calculated from a standard curve of energy transfer efficiency against the molar fraction of Rh-PE in the membrane assuming complete mixing of labelled and unlabelled liposomes.
Lipid mixing was measured by a modification of the fluorescence resonance energy transfer (FRET) assay of Struck, et al. (Biochemistry, 20:4093–4099 (1981)). […]

1-O-methyl-(poly(ethoxy)-O-succinyl-O-(egg)ceramide [egg ceramide-PEG2000]
phase preference by 31P-NMR [1]: exclusively bilayer up to 60 °C | time for 50% maximal fusion [2]: over 20 hr
